Experimental data: publication PMC9961634

Assays:
[1] = molecular target: Beta vulgaris ssp. vulgaris phytoglobin type 1.2 (BvPgb1.2) (Beta vulgaris spp. vulgaris); experiment: SEC; analytical size exclusion chromatography of the purified protein samples; conditions not given (ref. 23)
[2] = molecular target: Beta vulgaris ssp. vulgaris phytoglobin type 1.2 (BvPgb1.2) (Beta vulgaris spp. vulgaris); experiment: NMR 15N relaxation (rotational correlation time from R2/R1, ROTDIF, compared with HYDRONMR values for monomeric and dimeric structures); CN-bound BvPgb1.2, 1 mM protein in 50 mM MOPS pH 7.4, 8% D2O, 298 K, 14.1 T; monomer to dimer
Hb1 (Oryza sativa) = Hb1 (Oryza sativa) (UniProt O04986); conditions: cited from earlier work

stoichiometry N [1]	stoichiometry N [2]	Substance	Kd (Hb1 (Oryza sativa))
2	2	Beta vulgaris ssp. vulgaris phytoglobin type 1.2 (BvPgb1.2) (natural protein)	–
–	–	Hb1 (from UniProt O04986)	86 µM
